Measured values reported in IntAct's records for PubMed 19556541.

B1: Polycystin-2 (Homo sapiens), Q13563-1 (parent)
chain: MVNSSRVQPQQPGDAKRPPAPRAPDPGRLMAGCAAVGASLAAPGGLCEQRGLEIEMQRIRQAAARDPPAGAAASPSPPLSSCSRQAWSRDNPGFEAEEEEEEVEGEEGGMVVEMDVEWRPGSRRSAASSAVSSVGARSRGLGGYHGAGHPSGRRRRREDQGPPCPSPVGGGDPLHRHLPLEGQPPRVAWAERLVRGLRGLWGTRLMEESSTNREKYLKSVLRELVTYLLFLIVLCILTYGMMSSNVYYYTRMMSQLFLDTPVSKTEKTNFKTLSSMEDFWKFTEGSLLDGLYWKMQPSNQTEADNRSFIFYENLLLGVPRIRQLRVRNGSCSIPQDLRDEIKECYDVYSVSSEDRAPFGPRNGTAWIYTSEKDLNGSSHWGIIATYSGAGYYLDLSRTREETAAQVASLKKNVWLDRGTRATFIDFSVYNANINLFCVVRLLVEFPATGGVIPSWQFQPLKLIRYVTTFDFFLAACEIIFCFFIFYYVVEEILEIRIHKLHYFRSFWNCLDVVIVVLSVVAIGINIYRTSNVEVLLQFLEDQNTFPNFEHLAYWQIQFNNIAAVTVFFVWIKLFKFINFNRTMSQLSTTMSRCAKDLFGFAIMFFIIFLAYAQLAYLVFGTQVDDFSTFQECIFTQFRIILGDINFAEIEEANRVLGPIYFTTFVFFMFFILLNMFLAIINDTYSEVKSDLAQQKAEMELSDLIRKGYHKALVKLKLKKNTVDDISESLRQGGGKLNFDELRQDLKGKGHTDAEIEAIFTKYDQDGDQELTEHEHQQMRDDLEKEREDLDLDHSSLPRPMSSRSFPRSLDDSEEDDDEDSGHSSRRRGSISSGVSYEEFQVLVRRVDRMEHSIGSIVSKIDAVIVKLEIMERAKLKRREVLGRLLDGVAEDERLGRDSEIHREQMERLVREELERWESDDAASQISHGLGTPVGLNGQPRPRSSRPSSSQSTEGMEGAGGNGSSNVHV

Variants of: B1
Settings: with pkd1_human PKD1, P98161
Sequence of pkd1_human PKD1, P98161 (P98161 whole entry, looked up): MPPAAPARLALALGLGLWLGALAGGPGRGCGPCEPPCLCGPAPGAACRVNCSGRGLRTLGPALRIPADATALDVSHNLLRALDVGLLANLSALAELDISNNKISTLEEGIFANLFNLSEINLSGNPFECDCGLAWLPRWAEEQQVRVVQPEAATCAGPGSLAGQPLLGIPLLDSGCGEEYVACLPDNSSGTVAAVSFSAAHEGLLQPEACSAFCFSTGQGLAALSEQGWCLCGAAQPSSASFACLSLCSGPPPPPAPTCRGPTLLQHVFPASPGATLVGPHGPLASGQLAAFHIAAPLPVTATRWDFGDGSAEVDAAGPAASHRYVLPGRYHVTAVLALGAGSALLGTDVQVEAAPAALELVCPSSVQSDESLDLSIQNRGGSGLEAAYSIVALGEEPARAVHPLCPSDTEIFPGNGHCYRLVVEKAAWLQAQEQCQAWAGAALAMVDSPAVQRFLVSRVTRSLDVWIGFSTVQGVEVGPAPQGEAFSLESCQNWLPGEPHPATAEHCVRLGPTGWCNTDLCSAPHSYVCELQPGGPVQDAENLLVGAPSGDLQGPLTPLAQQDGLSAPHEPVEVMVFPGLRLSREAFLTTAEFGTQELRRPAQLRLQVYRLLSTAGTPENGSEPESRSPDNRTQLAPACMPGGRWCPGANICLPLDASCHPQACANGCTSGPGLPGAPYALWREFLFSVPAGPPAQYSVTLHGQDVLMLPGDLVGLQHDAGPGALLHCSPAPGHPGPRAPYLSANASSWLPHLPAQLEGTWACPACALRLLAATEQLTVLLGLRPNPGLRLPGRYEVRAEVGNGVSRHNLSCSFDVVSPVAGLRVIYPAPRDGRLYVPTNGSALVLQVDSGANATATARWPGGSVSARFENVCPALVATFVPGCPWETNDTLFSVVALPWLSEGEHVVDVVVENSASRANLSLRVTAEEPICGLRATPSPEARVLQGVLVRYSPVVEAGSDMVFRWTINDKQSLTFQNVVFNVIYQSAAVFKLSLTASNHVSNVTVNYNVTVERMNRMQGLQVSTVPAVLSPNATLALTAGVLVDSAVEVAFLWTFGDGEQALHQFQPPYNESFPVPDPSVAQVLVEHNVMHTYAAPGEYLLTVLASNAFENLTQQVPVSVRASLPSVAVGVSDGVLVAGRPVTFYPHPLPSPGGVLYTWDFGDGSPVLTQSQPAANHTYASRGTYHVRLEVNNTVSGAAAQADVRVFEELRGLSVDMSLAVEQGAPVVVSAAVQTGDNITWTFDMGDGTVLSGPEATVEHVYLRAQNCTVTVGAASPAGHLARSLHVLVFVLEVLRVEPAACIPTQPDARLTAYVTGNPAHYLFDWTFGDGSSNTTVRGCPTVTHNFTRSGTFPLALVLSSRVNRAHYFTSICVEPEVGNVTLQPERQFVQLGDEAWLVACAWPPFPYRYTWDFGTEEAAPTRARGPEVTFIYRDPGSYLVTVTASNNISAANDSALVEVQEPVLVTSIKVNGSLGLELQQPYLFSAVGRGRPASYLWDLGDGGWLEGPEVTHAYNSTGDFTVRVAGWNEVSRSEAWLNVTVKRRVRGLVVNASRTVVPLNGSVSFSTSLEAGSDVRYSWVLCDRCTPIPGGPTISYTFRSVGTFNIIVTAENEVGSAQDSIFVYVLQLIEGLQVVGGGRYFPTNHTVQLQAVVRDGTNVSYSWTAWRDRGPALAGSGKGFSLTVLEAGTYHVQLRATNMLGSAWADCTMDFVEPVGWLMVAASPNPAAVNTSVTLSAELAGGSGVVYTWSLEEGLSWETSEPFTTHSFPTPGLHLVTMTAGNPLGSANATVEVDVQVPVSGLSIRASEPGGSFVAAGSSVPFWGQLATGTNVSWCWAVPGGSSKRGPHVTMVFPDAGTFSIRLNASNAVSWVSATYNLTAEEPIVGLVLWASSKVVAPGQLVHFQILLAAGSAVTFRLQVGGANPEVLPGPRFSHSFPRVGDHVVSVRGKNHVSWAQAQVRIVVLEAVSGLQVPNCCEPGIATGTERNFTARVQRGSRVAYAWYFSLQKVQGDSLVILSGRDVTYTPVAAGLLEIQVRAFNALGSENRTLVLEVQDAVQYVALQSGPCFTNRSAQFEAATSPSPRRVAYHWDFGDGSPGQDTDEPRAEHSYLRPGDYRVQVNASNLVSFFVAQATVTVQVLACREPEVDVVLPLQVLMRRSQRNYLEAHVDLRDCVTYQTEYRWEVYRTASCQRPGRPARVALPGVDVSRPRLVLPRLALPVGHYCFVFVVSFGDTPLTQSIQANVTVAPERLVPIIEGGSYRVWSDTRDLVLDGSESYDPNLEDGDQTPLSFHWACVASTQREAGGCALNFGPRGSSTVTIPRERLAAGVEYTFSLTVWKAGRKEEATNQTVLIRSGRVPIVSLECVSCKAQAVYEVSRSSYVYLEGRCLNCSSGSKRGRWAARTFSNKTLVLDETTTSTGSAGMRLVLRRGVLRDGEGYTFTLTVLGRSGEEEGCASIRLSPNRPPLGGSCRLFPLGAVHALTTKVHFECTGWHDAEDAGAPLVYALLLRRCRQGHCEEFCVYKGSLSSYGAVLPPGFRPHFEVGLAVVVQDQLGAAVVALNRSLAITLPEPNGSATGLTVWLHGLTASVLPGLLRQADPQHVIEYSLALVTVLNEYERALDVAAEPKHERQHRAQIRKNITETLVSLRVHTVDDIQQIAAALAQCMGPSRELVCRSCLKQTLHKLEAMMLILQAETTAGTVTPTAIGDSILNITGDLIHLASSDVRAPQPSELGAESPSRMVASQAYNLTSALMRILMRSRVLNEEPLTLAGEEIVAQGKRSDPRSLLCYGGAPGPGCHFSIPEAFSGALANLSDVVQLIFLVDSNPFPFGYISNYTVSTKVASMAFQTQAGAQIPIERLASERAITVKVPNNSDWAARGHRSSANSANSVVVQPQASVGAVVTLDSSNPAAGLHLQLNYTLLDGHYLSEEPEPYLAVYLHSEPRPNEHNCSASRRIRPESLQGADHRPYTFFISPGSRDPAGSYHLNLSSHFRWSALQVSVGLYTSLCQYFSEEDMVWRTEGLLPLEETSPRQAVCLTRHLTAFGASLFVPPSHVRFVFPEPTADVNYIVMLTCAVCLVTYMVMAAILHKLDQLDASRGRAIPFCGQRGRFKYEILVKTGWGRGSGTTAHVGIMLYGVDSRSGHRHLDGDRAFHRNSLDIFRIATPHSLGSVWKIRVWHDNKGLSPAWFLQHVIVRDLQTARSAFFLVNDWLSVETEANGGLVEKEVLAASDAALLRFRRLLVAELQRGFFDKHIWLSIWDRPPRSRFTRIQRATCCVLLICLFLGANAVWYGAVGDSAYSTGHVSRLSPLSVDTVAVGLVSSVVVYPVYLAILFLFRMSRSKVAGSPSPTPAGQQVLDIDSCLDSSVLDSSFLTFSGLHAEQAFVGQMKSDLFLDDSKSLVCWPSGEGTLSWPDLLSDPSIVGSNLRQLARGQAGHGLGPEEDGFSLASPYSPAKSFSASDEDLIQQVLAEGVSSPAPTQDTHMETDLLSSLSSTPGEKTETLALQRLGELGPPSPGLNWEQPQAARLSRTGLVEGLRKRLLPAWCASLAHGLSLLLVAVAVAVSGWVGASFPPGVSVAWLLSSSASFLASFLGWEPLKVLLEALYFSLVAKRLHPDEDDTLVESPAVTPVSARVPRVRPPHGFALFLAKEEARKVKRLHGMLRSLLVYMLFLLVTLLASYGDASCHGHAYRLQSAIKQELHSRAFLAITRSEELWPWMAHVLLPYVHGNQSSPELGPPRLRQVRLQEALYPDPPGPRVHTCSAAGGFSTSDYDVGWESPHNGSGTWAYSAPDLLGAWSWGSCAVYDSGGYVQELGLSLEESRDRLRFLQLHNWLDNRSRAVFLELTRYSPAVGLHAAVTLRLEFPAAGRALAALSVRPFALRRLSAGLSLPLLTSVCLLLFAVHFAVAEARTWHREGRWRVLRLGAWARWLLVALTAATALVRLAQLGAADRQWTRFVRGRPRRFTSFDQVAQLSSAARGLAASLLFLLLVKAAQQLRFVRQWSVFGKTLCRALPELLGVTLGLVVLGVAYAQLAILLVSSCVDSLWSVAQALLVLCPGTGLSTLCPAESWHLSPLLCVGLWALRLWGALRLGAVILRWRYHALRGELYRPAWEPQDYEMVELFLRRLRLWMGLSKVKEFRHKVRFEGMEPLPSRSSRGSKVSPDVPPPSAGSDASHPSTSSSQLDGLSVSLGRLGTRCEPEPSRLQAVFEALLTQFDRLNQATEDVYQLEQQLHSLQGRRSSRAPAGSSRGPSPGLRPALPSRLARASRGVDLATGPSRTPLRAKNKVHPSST

Row | effect of a mutation on the interaction | Variant
1 | disrupting interaction strength | L842A;V846A;M849A;I860A;V863A;L867A
